# T1: APBA1_1, Q02410
# T1 sequence (Q02410 651-752, limits assumed, looked up): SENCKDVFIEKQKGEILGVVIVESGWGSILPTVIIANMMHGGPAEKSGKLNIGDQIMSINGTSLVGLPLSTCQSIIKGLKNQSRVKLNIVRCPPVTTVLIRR
# T2: ARHGEF11, O15085
# T2 sequence (O15085 42-136, limits assumed, looked up): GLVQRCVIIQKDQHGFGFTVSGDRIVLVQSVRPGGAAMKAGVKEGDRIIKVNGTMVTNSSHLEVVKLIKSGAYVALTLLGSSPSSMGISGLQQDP
# T3: RAPGEF6, Q8TEU7
# T3 sequence (Q8TEU7 525-625, limits assumed, looked up): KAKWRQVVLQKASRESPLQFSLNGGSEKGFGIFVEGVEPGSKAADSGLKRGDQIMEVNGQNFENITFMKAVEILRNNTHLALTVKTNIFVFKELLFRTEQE
# T4: LIN7C, Q9NUP9
# T4 sequence (Q9NUP9 88-185, limits assumed, looked up): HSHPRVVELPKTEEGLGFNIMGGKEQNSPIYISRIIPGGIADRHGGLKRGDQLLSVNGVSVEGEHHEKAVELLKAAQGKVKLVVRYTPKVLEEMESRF
# T5: LRRC7, Q96NW7
# T5 sequence (Q96NW7 1440-1537, limits assumed, looked up): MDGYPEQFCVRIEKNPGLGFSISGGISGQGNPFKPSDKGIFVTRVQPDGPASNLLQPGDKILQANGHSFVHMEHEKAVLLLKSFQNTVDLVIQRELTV
# T6: ARHGAP21, Q5T5U3
# T6 sequence (Q5T5U3 45-169, limits assumed, looked up): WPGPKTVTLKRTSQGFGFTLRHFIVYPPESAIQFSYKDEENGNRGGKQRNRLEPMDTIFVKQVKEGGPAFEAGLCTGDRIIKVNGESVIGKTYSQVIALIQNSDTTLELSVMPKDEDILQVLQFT
# T7: APBA1_2, Q02410
# T7 sequence (Q02410 742-832, limits assumed, looked up): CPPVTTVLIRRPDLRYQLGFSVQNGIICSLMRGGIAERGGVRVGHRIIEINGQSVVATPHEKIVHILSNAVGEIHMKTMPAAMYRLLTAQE
# T8: LNX2_3, Q8N448
# T8 sequence (Q8N448 463-564, limits assumed, looked up): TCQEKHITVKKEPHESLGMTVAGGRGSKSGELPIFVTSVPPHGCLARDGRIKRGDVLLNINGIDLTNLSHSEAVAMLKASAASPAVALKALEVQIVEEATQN
# T9: SHANK1, Q9Y566
# T9 sequence (Q9Y566 658-767, limits assumed, looked up): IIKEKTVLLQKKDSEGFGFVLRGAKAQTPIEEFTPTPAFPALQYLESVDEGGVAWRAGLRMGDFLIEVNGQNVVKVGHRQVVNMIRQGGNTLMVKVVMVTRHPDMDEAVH
# T10: TJP3_3, O95049
# T10 sequence (O95049 375-456, limits assumed, looked up): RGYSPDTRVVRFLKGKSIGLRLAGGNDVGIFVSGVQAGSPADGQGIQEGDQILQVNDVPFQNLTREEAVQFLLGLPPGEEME
# B1: CACNA1D, Q01668 (peptide)
# chain: ADEMICITTL
# B2: LRRC4, Q9HBW1 (peptide)
# chain: TKDKVQETQI
# Molecular target: PTPN3, P26045
# Sequence (P26045 505-587): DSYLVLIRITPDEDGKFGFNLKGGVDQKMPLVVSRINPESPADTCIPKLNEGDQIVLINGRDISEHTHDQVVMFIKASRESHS
# Experiment: holdup assay
# Set-up: key: below the threshold = too weak to quantify, mostly under pKd 3.1 to 4
# Settings: plain residues with an end cap or a label only (N-terminal biotin on a linker: ado-ado)
row,Binder,pKd
1,B1,4.62
2,B2,5.05

# Molecular target: GRID2IP_1, A4D2P6
# Sequence (A4D2P6 1-87): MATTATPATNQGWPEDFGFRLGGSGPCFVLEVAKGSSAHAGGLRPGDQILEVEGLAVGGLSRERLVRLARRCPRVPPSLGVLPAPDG
# Experiment: holdup assay
# Set-up: key: below the threshold = too weak to quantify, mostly under pKd 3.1 to 4
# Settings: plain residues with an end cap or a label only (N-terminal biotin on a linker: ado-ado)
row,Binder,pKd
1,B1,below the threshold
2,B2,below the threshold

# Molecular target: T1, APBA1_1, Q02410
# Experiment: holdup assay
# Set-up: key: below the threshold = too weak to quantify, mostly under pKd 3.1 to 4
# Settings: plain residues with an end cap or a label only (N-terminal biotin on a linker: ado-ado)
row,Binder,pKd
1,B1,below the threshold
2,B2,below the threshold

# Molecular target: PARD3_3, Q8TEW0
# Sequence (Q8TEW0 582-685): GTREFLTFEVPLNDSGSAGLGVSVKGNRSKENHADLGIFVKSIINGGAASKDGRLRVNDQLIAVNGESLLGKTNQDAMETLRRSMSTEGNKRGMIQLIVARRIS
# Experiment: holdup assay
# Set-up: key: below the threshold = too weak to quantify, mostly under pKd 3.1 to 4
# Settings: plain residues with an end cap or a label only (N-terminal biotin on a linker: ado-ado)
row,Binder,pKd
1,B1,4.38
2,B2,3.81

# Molecular target: SCRIB_2, Q14160
# Sequence (Q14160 857-960): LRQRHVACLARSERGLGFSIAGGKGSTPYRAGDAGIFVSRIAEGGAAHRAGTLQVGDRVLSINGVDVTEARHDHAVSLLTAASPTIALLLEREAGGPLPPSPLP
# Experiment: holdup assay
# Set-up: key: below the threshold = too weak to quantify, mostly under pKd 3.1 to 4
# Settings: plain residues with an end cap or a label only (N-terminal biotin on a linker: ado-ado)
row,Binder,pKd
1,B1,3.88
2,B2,4.41

# Molecular target: T2, ARHGEF11, O15085
# Experiment: holdup assay
# Set-up: key: below the threshold = too weak to quantify, mostly under pKd 3.1 to 4
# Settings: plain residues with an end cap or a label only (N-terminal biotin on a linker: ado-ado)
row,Binder,pKd
1,B1,5.77
2,B2,3.73

# Molecular target: MAGI2_3, Q86UL8
# Sequence (Q86UL8 600-682): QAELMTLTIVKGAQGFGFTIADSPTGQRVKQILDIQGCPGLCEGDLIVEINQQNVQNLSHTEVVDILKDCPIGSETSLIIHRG
# Experiment: holdup assay
# Set-up: key: below the threshold = too weak to quantify, mostly under pKd 3.1 to 4
# Settings: plain residues with an end cap or a label only (N-terminal biotin on a linker: ado-ado)
row,Binder,pKd
1,B1,3.56
2,B2,3.96

# Molecular target: T3, RAPGEF6, Q8TEU7
# Experiment: holdup assay
# Set-up: key: below the threshold = too weak to quantify, mostly under pKd 3.1 to 4
# Settings: plain residues with an end cap or a label only (N-terminal biotin on a linker: ado-ado)
row,Binder,pKd
1,B1,3.65
2,B2,below the threshold

# Molecular target: PDLIM1, O00151
# Sequence (O00151 1-87): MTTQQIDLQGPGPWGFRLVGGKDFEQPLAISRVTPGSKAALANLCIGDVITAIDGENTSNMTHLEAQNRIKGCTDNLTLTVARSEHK
# Experiment: holdup assay
# Set-up: key: below the threshold = too weak to quantify, mostly under pKd 3.1 to 4
# Settings: plain residues with an end cap or a label only (N-terminal biotin on a linker: ado-ado)
row,Binder,pKd
1,B1,below the threshold
2,B2,below the threshold

# Molecular target: T4, LIN7C, Q9NUP9
# Experiment: holdup assay
# Set-up: key: below the threshold = too weak to quantify, mostly under pKd 3.1 to 4
# Settings: plain residues with an end cap or a label only (N-terminal biotin on a linker: ado-ado)
row,Binder,pKd
1,B1,below the threshold
2,B2,3.98

# Molecular target: LDB3, O75112
# Sequence (O75112 1-94): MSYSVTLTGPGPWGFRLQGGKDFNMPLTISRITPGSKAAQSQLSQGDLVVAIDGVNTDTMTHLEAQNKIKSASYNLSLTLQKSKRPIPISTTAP
# Experiment: holdup assay
# Set-up: key: below the threshold = too weak to quantify, mostly under pKd 3.1 to 4
# Settings: plain residues with an end cap or a label only (N-terminal biotin on a linker: ado-ado)
row,Binder,pKd
1,B1,below the threshold
2,B2,below the threshold

# Molecular target: MAGI2_4, Q86UL8
# Sequence (Q86UL8 772-865): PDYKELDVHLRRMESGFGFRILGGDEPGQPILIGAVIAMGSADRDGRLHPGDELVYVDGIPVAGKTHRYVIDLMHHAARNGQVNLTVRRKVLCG
# Experiment: holdup assay
# Set-up: key: below the threshold = too weak to quantify, mostly under pKd 3.1 to 4
# Settings: plain residues with an end cap or a label only (N-terminal biotin on a linker: ado-ado)
row,Binder,pKd
1,B1,below the threshold
2,B2,3.72

# Molecular target: Inadl_2, Q8NI35
# Sequence (Q8NI35 238-335): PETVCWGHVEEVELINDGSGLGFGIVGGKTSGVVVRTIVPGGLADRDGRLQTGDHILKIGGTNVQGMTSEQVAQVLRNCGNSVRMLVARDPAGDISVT
# Experiment: holdup assay
# Set-up: key: below the threshold = too weak to quantify, mostly under pKd 3.1 to 4
# Settings: plain residues with an end cap or a label only (N-terminal biotin on a linker: ado-ado)
row,Binder,pKd
1,B1,below the threshold
2,B2,below the threshold

# Molecular target: T5, LRRC7, Q96NW7
# Experiment: holdup assay
# Set-up: key: below the threshold = too weak to quantify, mostly under pKd 3.1 to 4
# Settings: plain residues with an end cap or a label only (N-terminal biotin on a linker: ado-ado)
row,Binder,pKd
1,B1,3.8
2,B2,3.53

# Molecular target: T6, ARHGAP21, Q5T5U3
# Experiment: holdup assay
# Set-up: key: below the threshold = too weak to quantify, mostly under pKd 3.1 to 4
# Settings: plain residues with an end cap or a label only (N-terminal biotin on a linker: ado-ado)
row,Binder,pKd
1,B1,3.67
2,B2,4.05

# Molecular target: T7, APBA1_2, Q02410
# Experiment: holdup assay
# Set-up: key: below the threshold = too weak to quantify, mostly under pKd 3.1 to 4
# Settings: plain residues with an end cap or a label only (N-terminal biotin on a linker: ado-ado)
row,Binder,pKd
1,B1,4.01
2,B2,3.55

# Molecular target: DLG4_1, P78352
# Sequence (P78352 62-152): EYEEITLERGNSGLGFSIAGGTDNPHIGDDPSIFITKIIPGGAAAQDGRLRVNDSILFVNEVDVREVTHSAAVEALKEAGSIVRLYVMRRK
# Experiment: holdup assay
# Set-up: key: below the threshold = too weak to quantify, mostly under pKd 3.1 to 4
# Settings: plain residues with an end cap or a label only (N-terminal biotin on a linker: ado-ado)
row,Binder,pKd
1,B1,below the threshold
2,B2,4.44

# Molecular target: T8, LNX2_3, Q8N448
# Experiment: holdup assay
# Set-up: key: below the threshold = too weak to quantify, mostly under pKd 3.1 to 4
# Settings: plain residues with an end cap or a label only (N-terminal biotin on a linker: ado-ado)
row,Binder,pKd
1,B1,below the threshold
2,B2,below the threshold

# Molecular target: FRMPD2_2, Q68DX3
# Sequence (Q68DX3 944-1038): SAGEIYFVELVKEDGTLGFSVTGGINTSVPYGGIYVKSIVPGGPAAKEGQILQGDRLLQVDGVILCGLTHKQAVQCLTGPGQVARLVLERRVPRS
# Experiment: holdup assay
# Set-up: key: below the threshold = too weak to quantify, mostly under pKd 3.1 to 4
# Settings: plain residues with an end cap or a label only (N-terminal biotin on a linker: ado-ado)
row,Binder,pKd
1,B1,3.86
2,B2,3.82

# Molecular target: MAGI3_2, Q5TCQ9
# Sequence (Q5TCQ9 398-503): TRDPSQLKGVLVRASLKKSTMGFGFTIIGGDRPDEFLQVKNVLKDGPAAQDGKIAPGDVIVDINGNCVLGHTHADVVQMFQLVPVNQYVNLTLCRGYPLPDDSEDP
# Experiment: holdup assay
# Set-up: key: below the threshold = too weak to quantify, mostly under pKd 3.1 to 4
# Settings: plain residues with an end cap or a label only (N-terminal biotin on a linker: ado-ado)
row,Binder,pKd
1,B1,below the threshold
2,B2,4.87

# Molecular target: T9, SHANK1, Q9Y566
# Experiment: holdup assay
# Set-up: key: below the threshold = too weak to quantify, mostly under pKd 3.1 to 4
# Settings: plain residues with an end cap or a label only (N-terminal biotin on a linker: ado-ado)
row,Binder,pKd
1,B1,5.28
2,B2,3.76

# Molecular target: NHERF4_2, Q86UT5
# Sequence (Q86UT5 220-308): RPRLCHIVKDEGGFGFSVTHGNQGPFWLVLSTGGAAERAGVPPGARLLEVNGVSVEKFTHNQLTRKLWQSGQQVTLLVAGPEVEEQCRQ
# Experiment: holdup assay
# Set-up: key: below the threshold = too weak to quantify, mostly under pKd 3.1 to 4
# Settings: plain residues with an end cap or a label only (N-terminal biotin on a linker: ado-ado)
row,Binder,pKd
1,B1,below the threshold
2,B2,below the threshold

# Molecular target: DLG2_3, Q15700
# Experiment: holdup assay
# Set-up: key: below the threshold = too weak to quantify, mostly under pKd 3.1 to 4
# Settings: plain residues with an end cap or a label only (N-terminal biotin on a linker: ado-ado)
row,Binder,pKd
1,B1,3.81
2,B2,4.16

# Molecular target: T10, TJP3_3, O95049
# Experiment: holdup assay
# Set-up: key: below the threshold = too weak to quantify, mostly under pKd 3.1 to 4
# Settings: plain residues with an end cap or a label only (N-terminal biotin on a linker: ado-ado)
row,Binder,pKd
1,B1,below the threshold
2,B2,below the threshold

# Molecular target: Inadl_4, Q8NI35
# Sequence (Q8NI35 547-651): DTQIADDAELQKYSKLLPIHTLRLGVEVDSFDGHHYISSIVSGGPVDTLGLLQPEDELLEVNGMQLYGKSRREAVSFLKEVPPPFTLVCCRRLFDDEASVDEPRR
# Experiment: holdup assay
# Set-up: key: below the threshold = too weak to quantify, mostly under pKd 3.1 to 4
# Settings: plain residues with an end cap or a label only (N-terminal biotin on a linker: ado-ado)
row,Binder,pKd
1,B1,below the threshold
2,B2,below the threshold

# Molecular target: Inadl_8, Q8NI35
# Sequence (Q8NI35 1425-1530): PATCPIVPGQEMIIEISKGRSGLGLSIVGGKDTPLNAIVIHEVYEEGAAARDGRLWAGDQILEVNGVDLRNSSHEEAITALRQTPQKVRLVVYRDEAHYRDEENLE
# Experiment: holdup assay
# Set-up: key: below the threshold = too weak to quantify, mostly under pKd 3.1 to 4
# Settings: plain residues with an end cap or a label only (N-terminal biotin on a linker: ado-ado)
row,Binder,pKd
1,B1,3.61
2,B2,3.5

# Molecular target: FRMPD2_1, Q68DX3
# Sequence (Q68DX3 770-861): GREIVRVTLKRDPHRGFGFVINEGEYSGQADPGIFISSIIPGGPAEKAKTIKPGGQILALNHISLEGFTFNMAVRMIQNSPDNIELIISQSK
# Experiment: holdup assay
# Set-up: key: below the threshold = too weak to quantify, mostly under pKd 3.1 to 4
# Settings: plain residues with an end cap or a label only (N-terminal biotin on a linker: ado-ado)
row,Binder,pKd
1,B1,below the threshold
2,B2,below the threshold

# Molecular target: NHERF4_1, Q86UT5-2
# Sequence (Q86UT5 other isoform, or with tags, fused parts or gaps): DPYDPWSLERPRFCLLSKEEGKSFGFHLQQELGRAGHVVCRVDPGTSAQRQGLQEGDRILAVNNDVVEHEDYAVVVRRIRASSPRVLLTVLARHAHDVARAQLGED
# Experiment: holdup assay
# Set-up: key: below the threshold = too weak to quantify, mostly under pKd 3.1 to 4
# Settings: plain residues with an end cap or a label only (N-terminal biotin on a linker: ado-ado)
row,Binder,pKd
1,B1,4.52
2,B2,below the threshold

# — article PMC9482650, “Quantitative fragmentomics allow affinity mapping of interactomes” (Nature Communications, 2022)
